# From publication doi:10.1101/2024.01.24.577129
# B1: RGY-hIgG1-34-1-2S (antibody, V domains shown)
# VH: EVQLQQSGAEFVRPGASVKLSCTASGFNLKDDYMFWVKQRPEQGLEWIGWIAPDNGDTEYASKFQGKATITADTSSNTAYVQLSSLTSEDTAVYYCTTWGYYSYVNYWGQGTTLTVSS
# VL: DIQMTQSPSSLSASLGERVSLTCRASQDIGSNLNWLQQEPDGTIKRLIYATYSLDSGVPKRFSGSRSGSDYSLTISSLESEDFVDYYCLQYASSPYTFGGGTKLEIK
# Biological target: RGY-hIgG1-34-1-2S (mouse | human | not stated)
# Experiment: negative stain electron microscopy; antibody in solution diluted to 0.01 mg/ml in 25 mM HEPES, 100 mM NaCl, on carbon-coated grids, 0.75% uranyl formate
binder,measurement,value
B1,stoichiometry N,6
